Measurements published in PMC1666580 (The Journal of Cell Biology, 2006).

Target: T1, bacterially expressed human SDC1 ectodomain (hS1ED) (human, UniProt P18827 23-254)
T1 sequence (looked up): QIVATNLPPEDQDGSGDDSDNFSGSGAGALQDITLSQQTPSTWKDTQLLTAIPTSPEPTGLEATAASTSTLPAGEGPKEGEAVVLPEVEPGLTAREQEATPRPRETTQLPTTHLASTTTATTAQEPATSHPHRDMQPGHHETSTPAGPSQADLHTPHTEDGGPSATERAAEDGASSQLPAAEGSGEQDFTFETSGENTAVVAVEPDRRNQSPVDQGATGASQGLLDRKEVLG
Test: pull-down

B1: lacritin-intein fusion protein (lacritin coupled to chitin beads via chitin-binding intein) (ligand, human, UniProt Q9GZZ8 20-138, looked up)
chain: EDASSDSTGADPAQEAGTSKPNEEISGPAEPASPPETTTTAQETSAAAVQGTAKVTSSRQELNPLKSIVEKSILLTEQALAKAGKGMHGGVPGGKQFIENGSEFAQKLLKKFSLLKPWA
B1: binds.
